Test results reported in PMC6125358, “Mapping the Interface of a GPCR Dimer: A Structural Model of the A2A Adenosine and D2 Dopamine Receptor Heteromer” (Frontiers in Pharmacology, 2018).

B1: 3xHA-D2R^GFP2 (human D2 dopamine receptor, wild type) [human] / human adenosine receptor fused to Renilla luciferase (A2AR^Rluc) [human] (parent)
chain 1: MPIMGSSVYITVELAIAVLAILGNVLVCWAVWLNSNLQNVTNYFVVSLAAADIAVGVLAIPFAITISTGFCAACHGCLFIACFVLVLTQSSIFSLLAIAIDRYIAIRIPLRYNGLVTGTRAKGIIAICWVLSFAIGLTPMLGWNNCGQPKEGKNHSQGCGEGQVACLFEDVVPMNYMVYFNFFACVLVPLLLMLGVYLRIFLAARRQLKQMESQPLPGERARSTLQKEVHAAKSLAIIVGLFALCWLPLHIINCFTFFCPDCSHAPLWLMYLAIVLSHTNSVVNPFIYAYRIREFRQTFRKIIRSHVLRQQEPFKAAGTSARVLAAHGSDGEQVSLRLNGHPPGVWANGSAPHPERRPNGYALGLVSGGSAQESQGNTGLPDVELLSHELKGVCPEPPGLDDPLAQDGAGVS
chain 2: MDPLNLSWYDDDLERQNWSRPFNGSDGKADRPHYNYYATLLTLLIAVIVFGNVLVCMAVSREKALQTTTNYLIVSLAVADLLVATLVMPWVVYLEVVGEWKFSRIHCDIFVTLDVMMCTASILNLCAISIDRYTAVAMPMLYNTRYSSKRRVTVMISIVWVLSFTISCPLLFGLNNADQNECIIANPAFVVYSSIVSFYVPFIVTLLVYIKIYIVLRRRRKRVNTKRSSRAFRAHLRAPLKGNCTHPEDMKLCTVIMKSNGSFPVNRRRVEAARRAQELEMEMLSSTSPPERTRYSPIPPSHHQLTLPDPSHHGLHSTPDSPAKPEKNGHAKDHPKIAKIFEIQTMPNGKTRTSLKTMSRRKLSQQKEKKATQMLAIVLGVFIICWLPFFITHILNIHCDCNIPPVLYSAFTWLGYVNSAVNPIIYTTFNIEFRKAFLKILHC

Variants of: B1
Assay: BRET2 saturation assay
Details: with human A2A adenosine receptor fused to Renilla luciferase (A2AR^Rluc) [human]; height of the fitted saturation curve read at x = 6 AU (GFP2-GFP2_0)/Rluc; co-expressed in cells; DeepBlueC substrate, 10 min incubation; read off a plot

Point of comparison: chain 2 Y192A, response (netBRET2 ratio) 0.056. Against it:
- chain 2 L207A K211A — lower, 0.048
